{"source": "patent US20200283528A1", "key": {"[1]": {"molecular_target": "human PDL1 expressed on cells (human) (UniProt Q9NZQ7)", "assay": "cell-based or functional assay"}, "[2]": {"molecular_target": "Fc tagged human PDL1 (human) (UniProt Q9NZQ7)", "assay": "SPR Biacore T200; PDL1-Fc captured; molecule 0.12-90 nM"}, "[3]": {"molecular_target": "human CD137-Fc chimeric protein (human) (UniProt Q07011)", "assay": "SPR Biacore T200; CD137-Fc captured; molecule as analyte"}, "[4]": {"molecular_target": "human PDL1 (recombinant, soluble) (human) (UniProt Q9NZQ7)", "assay": "PDL1/PD-1 competition ELISA; PD-1 coated, biotinylated PDL1 1 ng/ml"}, "[5]": {"molecular_target": "human PDL1 (recombinant, soluble) (human) (UniProt Q9NZQ7)", "assay": "PDL1/B7-1 competition ELISA; B7-1 coated, biotinylated PDL1 40 ng/ml"}}}
{"binder": "PRO1432 (scDb-scFv: 33-03-G02 sc18 / 38-02-A04 sc013 / 19-01-H04 sc03) (protein, from a related filing) DIQMTQSPSSLSASVGDRVTITCQASQSINNVLAWYQQKPGKAPKLLIYRASTLASGVPSRFSGSGSGTDFTLTISSLQPEDFATYYCQSSYGNYGDFGCGTKVTVLGGGGGSQVQLQESGPGLVKPSETLSLTCKASGFSFSSGYDMCWVRQPPGKGLEWIACVVAGSVDITYYASWAKGRVTISKDSSKNQVSLKLSSVTAADTAVYYCARKDAYSDAFNLWGQGTLVTVSSGGGGSGGGGSGGGGSGGGGSIQMTQSPSSLSASVGDRVTITCQASQSINDYLAWYQQKPGKAPKLLIYKASTLASGVPSRFSGSGSGTDFTLTISSLQPEDFATYYCQQGYIITDIDNVFGTGTKVTVLGGGGGSEVQLVESGGGLVQPGGSLRLSCAASGFSFSNSYWICWVRQAPGKCLEWIGCTFVGSSDSTYYANWAKGRFTISRDNSKNTVYLQMNSLRAEDTAVYYCARHPSDAVYGYANNLWGQGTLVTVSSGGGGSGGGGSIQMTQSPSSLSASVGDRVTITCQSSESVYSNNQLSWYQQKPGQPPKLLIYDASDLASGVPSRFSGSGSGTDFTLTISSLQPEDFATYYCAGGFSSSSDTAFGGGTKLTVLGGGGGSGGGGSGGGGSGGGGSEVQLVESGGGLVQPGGSLRLSCAASGFSLSSNAMGWVRQAPGKGLEYIGIISVGGFTYYASWAKGRFTISRDNSKNTVYLQMNSLRAEDTATYFCARDRHGGDSSGAFYLWGQGTLVTVSS", "values": [{"measurement": "NF-AT potency assay IC50 (with HSA)", "setting": "[1]", "value": 18.5, "unit": "ng/mL"}, {"measurement": "NF-AT potency assay rel. IC50 (IC50, Avelumab/IC50, test molecule) (with HSA)", "setting": "[1]", "value": 1.98}, {"measurement": "Kd", "setting": "[2]", "value": 0.011, "unit": "nM"}, {"measurement": "koff", "setting": "[2]", "value": "4.4e-05", "unit": "s⁻¹"}, {"measurement": "kon", "setting": "[2]", "value": "4.2e+06", "unit": "M⁻¹ s⁻¹"}, {"measurement": "Kd", "setting": "[3]", "value": 0.75, "unit": "nM"}, {"measurement": "koff", "setting": "[3]", "value": 0.00045, "unit": "s⁻¹"}, {"measurement": "kon", "setting": "[3]", "value": 600000, "unit": "M⁻¹ s⁻¹"}, {"measurement": "IC50", "setting": "[4]", "value": 3.26, "unit": "ng/mL"}, {"measurement": "rel. IC50 (IC50, Avelumab/IC50, test molecule)", "setting": "[4]", "value": 0.43}, {"measurement": "IC50", "setting": "[5]", "value": 2.83, "unit": "ng/mL"}, {"measurement": "rel. IC50 (IC50, Avelumab/IC50, test molecule)", "setting": "[5]", "value": 0.99}]}
